# Measured values published in article PMC9545174 (2022).
# Molecular target: wildtype SARS-CoV-2 RBD Protein (SARS-CoV-2, UniProt P0DTC2 319-541)
# Assay: SPR
row,Binder,koff [s⁻¹]
1,"18-4A (antibody, V domains shown) VH: QVQLQQSGPGLVKPSQTLSLTCAISGDSVSNNSAAWNWIRQSPSRGLEWLGRTYYRSKWYNDYAVSVSSRITINPDTSKNQFSLQLNSVTPEDTAVYYCAREGALLWFGEGAFDYWGQGTLVTVSS VL: EIVLTQSPGTLSLSPGERATLSCRASHIVSSSYLAWYQQKPGQAPRFLIYGASSRATGIPDRFSGSGSGTDFTLTISRLEPEDFAVYYCQQYAGSPFTFGPGTKVDIK",0.000134
2,"11-2G (antibody, V domains shown) VH: QVQLQQAGPGLVKPSQTLSLTCAISGDSVSNNSAIWNWIRQSPSRGLEWLGRTYYRSKWYNDYAVSVSSRITINPDTSKNQFSLQLNSVTPEDTAVYYCARVDILTGYSFDYWGQGTLVTVSS VL: EIVLTQSPGTLSLSPGERATLSCRASQSVSSSFLAWYQQKPGQAPRFLIYGESYRATGIPDRFSGSGSGTDFTLTISRLEPEDFAVYYCQQYGSSLTFGGGTKVEIK",0.000568
